Test results: article PMC4608735, “Inhibition of BACE1 Activity by a DNA Aptamer in an Alzheimer’s Disease Cell Model”

Tests used:
[1] = biological target: β-site APP-cleaving enzyme 1 (BACE1) (UniProt P56817)
[2] = biological target: BACE1 extracellular domain (human, UniProt P56817 46-457); test: indirect ELISA (plate-coated BACE1); ELISA: BACE1 coated in 1x PBS, 5% BSA block, PBST (0.01% Tween 20, pH 7.4) wash, aptamer 60 min at 37 C; SELEX binding buffer: 1x PBS, 5 mM MgCl2, 0.45% glucose, tRNA, salmon sperm DNA, BSA; FRET: kit Fluorescent Assay Buffer, 37 C, 4 h; settings: protein: commercial; predicted stem-loop
Sequence of BACE1 extracellular domain (P56817 46-457): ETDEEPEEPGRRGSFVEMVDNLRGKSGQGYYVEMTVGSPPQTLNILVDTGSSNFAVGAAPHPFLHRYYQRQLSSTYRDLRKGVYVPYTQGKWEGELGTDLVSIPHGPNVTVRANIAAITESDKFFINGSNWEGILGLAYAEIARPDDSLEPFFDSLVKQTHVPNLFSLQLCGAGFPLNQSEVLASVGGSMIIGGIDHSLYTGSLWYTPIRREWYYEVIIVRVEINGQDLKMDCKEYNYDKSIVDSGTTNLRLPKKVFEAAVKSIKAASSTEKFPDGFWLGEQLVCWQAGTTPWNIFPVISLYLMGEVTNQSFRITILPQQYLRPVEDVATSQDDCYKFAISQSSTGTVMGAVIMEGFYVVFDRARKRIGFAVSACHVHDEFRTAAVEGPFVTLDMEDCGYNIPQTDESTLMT

Sequence of β-site APP-cleaving enzyme 1 (BACE1) (P56817 46-501): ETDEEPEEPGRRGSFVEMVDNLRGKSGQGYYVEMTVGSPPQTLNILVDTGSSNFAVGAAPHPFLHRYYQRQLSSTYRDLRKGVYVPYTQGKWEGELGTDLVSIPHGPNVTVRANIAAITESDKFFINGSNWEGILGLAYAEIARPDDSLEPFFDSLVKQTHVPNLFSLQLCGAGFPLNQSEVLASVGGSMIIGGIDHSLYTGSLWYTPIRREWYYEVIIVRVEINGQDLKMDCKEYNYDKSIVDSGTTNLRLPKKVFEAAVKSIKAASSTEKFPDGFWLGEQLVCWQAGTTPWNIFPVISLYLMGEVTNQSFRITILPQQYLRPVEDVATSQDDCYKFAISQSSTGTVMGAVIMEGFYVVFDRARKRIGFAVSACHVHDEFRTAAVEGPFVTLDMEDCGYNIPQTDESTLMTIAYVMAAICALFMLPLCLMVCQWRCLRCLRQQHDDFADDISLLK

IC50 of inhibition of BACE1 activity (cleavage of a fluorescent substrate, FRET assay of the BACE1 Activity Detection Kit, 4 h, 37°C) [1] [nM] | Molecule | Kd [2] [nM]
242 | [Asn670, Sta671, Val672]-Amyloid β/A4 Precursor Protein 770 Fragment 662–675 (from UniProt P05067 662-675) (peptide) | –
– | A4 (ssDNA) DNA: GCAATGGTACGGTACTTCCTGTGTTATTGTTATGTTTTTTCAGTGTAGTCAAAAGTGCACGCTACTTTGCTAA | 15.3 ± 2.03
– | A1 (ssDNA) DNA: GCAATGGTACGGTACTTCCGTCATCAGCTTGTGATGTGGATGCGAACTGCAAAAGTGCACGCTACTTTGCTAA | 68.6 ± 8.12
